Data on six proteins can be found in article PMC9253678, “Computer-Aided Design of α-L-Rhamnosidase to Increase the Synthesis Efficiency of Icariside I” (Frontiers in Bioengineering and Biotechnology, 2022).

Substrate in the data set: COc1ccc(-c2oc3c(CC=C(C)C)c(O[C@@H]4O[C@H](CO)[C@@H](O)[C@H](O)[C@H]4O)cc(O)c3c(=O)c2O[C@@H]2O[C@@H](C)[C@H](O)[C@@H](O)[C@H]2O)cc1
Put plainly: HPLC of icariside I formation, Michaelis-Menten nonlinear fit. Format: biochemical, Thermotoga petrophila. From the text: HPLC of icariside I formation, Michaelis-Menten nonlinear fit on […]

[1] abbreviates: optimal conditions of the mutant: 85°C, pH 4.6, icariin 0.1–4 mg/ml.
[2] abbreviates: optimal conditions of the mutant: 80°C, pH 6.0, icariin 0.1–4 mg/ml.
[3] abbreviates: optimal conditions of the enzyme: 80°C, pH 5.0, disodium hydrogen phosphate-citrate buffer, icariin 0.1–4 mg/ml.
Setting [4] is: optimal conditions of the mutant: 85°C, pH 5.0, icariin 0.1–4 mg/ml.
[5] abbreviates: optimal conditions of the mutant: 80°C, pH 5.0, icariin 0.1–4 mg/ml.

B1: TpeRha (Thermotoga petrophila RKU-1; D506A/H570A/K579A) (protein)
chain: MIQACDLRCEYLTSPVLGLDVIPRFSWRLKGNGKKQTRYKIIVSDNFDDIERGIGNVWESEKDSSKNLNIEYEGPKLKAYKGYYWRVKLWDEKENGPWSETAYFEMGPLEDWRGKWITMPSPLSFKDPAHRHELFYAMYFRKEFLLNKEVEKARVYVSGLGVYELHLNGKRVGNNVLDPAPTDYNKVALYSTYDVTQYLTTGKNTIGVILGNGRHIRDYGYSKPKLYLQLLVFYKDGSREFICSDETWKVSHGPLKENGIYFGEVYDARDEISGWDSPGFDDRNWSEVEIVEGPSLKAQLIPVIRVCEVIKPKRLWLSSRGTFIVDFGKNISGWVKLRVNNGKRGEKIIIRYAEVLDPSMDRLDTRNLRLARATDEYILKGQGVEIYEPRFTYHGFRYVEVEDYPGTLTSDNIEAMFVHTDVEKVGDFACSSELLNKIHSCVVNSQLANLMGIPTDCPQRDERMGWLGDAQLTVEEAMYNFDMAAFYTKYLMDIKLSQKEDGSISAVAPPYWKRYPSDPAWGTAYATILWYLYFFYEDRRVLEEHYDSLKRYVEFLRKNSPNHLTKLGQAGDWCPPGDAFPKRTPLILTSTWYYYHDTLILSEIAKILGKKEDEHEYRKLAGEIKEAFNRHFLRKVEDHTGRIVCFYRGIKLSPKDRIPTTQTCNVLPLWNKMVPEECREDVFKVLERLIEVDNDTHFDTGIVGTRYILEVLSENGRKDLALKLLLKEDYPSFGYMIKNGATTLWERWEKLEGTGMNSHNHVMLGSVDTWFYKYLSGIKPVAPGWKKIRIEPYFADQIDFVSAKIKTPNGSLEVSWKKQNKEYEIQIIIPVNTVGIFAVPESFKVSAINSKQVSYPSEFELEPGAYNIVLERVREC
notes: codon-optimized synthetic gene in pET-28a, E. coli BL21(DE3), Ni-NTA purified (His tag of vector); model domains span 1-861
By Km is commonly meant the substrate concentration at which the rate is half of its maximum. Usually Vmax stands for the rate approached at saturating substrate. As usually defined, the kcat is the number of substrate molecules converted per active site and unit of time at saturation. For orientation: kcat/Km means the turnover number divided by the Michaelis constant. Regarding B1, under setting [1], the Km was 1.11 ± 0.34 µM, the Vmax stood at 6.59 µM/min, the kcat was 0.000212 s⁻¹ and the kcat/Km was 191 M⁻¹ s⁻¹.

B2: TpeRha (Thermotoga petrophila RKU-1; H570A) (protein)
chain: MIQACDLRCEYLTSPVLGLDVIPRFSWRLKGNGKKQTRYKIIVSDNFDDIERGIGNVWESEKDSSKNLNIEYEGPKLKAYKGYYWRVKLWDEKENGPWSETAYFEMGPLEDWRGKWITMPSPLSFKDPAHRHELFYAMYFRKEFLLNKEVEKARVYVSGLGVYELHLNGKRVGNNVLDPAPTDYNKVALYSTYDVTQYLTTGKNTIGVILGNGRHIRDYGYSKPKLYLQLLVFYKDGSREFICSDETWKVSHGPLKENGIYFGEVYDARDEISGWDSPGFDDRNWSEVEIVEGPSLKAQLIPVIRVCEVIKPKRLWLSSRGTFIVDFGKNISGWVKLRVNNGKRGEKIIIRYAEVLDPSMDRLDTRNLRLARATDEYILKGQGVEIYEPRFTYHGFRYVEVEDYPGTLTSDNIEAMFVHTDVEKVGDFACSSELLNKIHSCVVNSQLANLMGIPTDCPQRDERMGWLGDAQLTVEEAMYNFDMAAFYTKYLMDIKLSQKEDGSISDVAPPYWKRYPSDPAWGTAYATILWYLYFFYEDRRVLEEHYDSLKRYVEFLRKNSPNHLTKLGQAGDWCPPGDKFPKRTPLILTSTWYYYHDTLILSEIAKILGKKEDEHEYRKLAGEIKEAFNRHFLRKVEDHTGRIVCFYRGIKLSPKDRIPTTQTCNVLPLWNKMVPEECREDVFKVLERLIEVDNDTHFDTGIVGTRYILEVLSENGRKDLALKLLLKEDYPSFGYMIKNGATTLWERWEKLEGTGMNSHNHVMLGSVDTWFYKYLSGIKPVAPGWKKIRIEPYFADQIDFVSAKIKTPNGSLEVSWKKQNKEYEIQIIIPVNTVGIFAVPESFKVSAINSKQVSYPSEFELEPGAYNIVLERVREC
notes: as for B1
In the case of B2, under setting [2], the Km is 0.92 ± 0.08 µM, the Vmax is 1.19 µM/min, the kcat is 3.64e-05 s⁻¹ and the kcat/Km is 39.5 M⁻¹ s⁻¹.

B3: TpeRha (Thermotoga petrophila RKU-1) (protein)
chain: MIQACDLRCEYLTSPVLGLDVIPRFSWRLKGNGKKQTRYKIIVSDNFDDIERGIGNVWESEKDSSKNLNIEYEGPKLKAYKGYYWRVKLWDEKENGPWSETAYFEMGPLEDWRGKWITMPSPLSFKDPAHRHELFYAMYFRKEFLLNKEVEKARVYVSGLGVYELHLNGKRVGNNVLDPAPTDYNKVALYSTYDVTQYLTTGKNTIGVILGNGRHIRDYGYSKPKLYLQLLVFYKDGSREFICSDETWKVSHGPLKENGIYFGEVYDARDEISGWDSPGFDDRNWSEVEIVEGPSLKAQLIPVIRVCEVIKPKRLWLSSRGTFIVDFGKNISGWVKLRVNNGKRGEKIIIRYAEVLDPSMDRLDTRNLRLARATDEYILKGQGVEIYEPRFTYHGFRYVEVEDYPGTLTSDNIEAMFVHTDVEKVGDFACSSELLNKIHSCVVNSQLANLMGIPTDCPQRDERMGWLGDAQLTVEEAMYNFDMAAFYTKYLMDIKLSQKEDGSISDVAPPYWKRYPSDPAWGTAYATILWYLYFFYEDRRVLEEHYDSLKRYVEFLRKNSPNHLTKLGQHGDWCPPGDKFPKRTPLILTSTWYYYHDTLILSEIAKILGKKEDEHEYRKLAGEIKEAFNRHFLRKVEDHTGRIVCFYRGIKLSPKDRIPTTQTCNVLPLWNKMVPEECREDVFKVLERLIEVDNDTHFDTGIVGTRYILEVLSENGRKDLALKLLLKEDYPSFGYMIKNGATTLWERWEKLEGTGMNSHNHVMLGSVDTWFYKYLSGIKPVAPGWKKIRIEPYFADQIDFVSAKIKTPNGSLEVSWKKQNKEYEIQIIIPVNTVGIFAVPESFKVSAINSKQVSYPSEFELEPGAYNIVLERVREC
notes: as for B1
In the case of B3, under setting [3], the Km was found to be 4.33 ± 3.47 µM, the maximum rate (Vmax) was determined as 0.098 µM/min, the catalytic constant (kcat) is 4e-06 s⁻¹ and the kcat/Km turned out to be 0.923 M⁻¹ s⁻¹.

B4: TpeRha (Thermotoga petrophila RKU-1; D506A) (protein)
chain: MIQACDLRCEYLTSPVLGLDVIPRFSWRLKGNGKKQTRYKIIVSDNFDDIERGIGNVWESEKDSSKNLNIEYEGPKLKAYKGYYWRVKLWDEKENGPWSETAYFEMGPLEDWRGKWITMPSPLSFKDPAHRHELFYAMYFRKEFLLNKEVEKARVYVSGLGVYELHLNGKRVGNNVLDPAPTDYNKVALYSTYDVTQYLTTGKNTIGVILGNGRHIRDYGYSKPKLYLQLLVFYKDGSREFICSDETWKVSHGPLKENGIYFGEVYDARDEISGWDSPGFDDRNWSEVEIVEGPSLKAQLIPVIRVCEVIKPKRLWLSSRGTFIVDFGKNISGWVKLRVNNGKRGEKIIIRYAEVLDPSMDRLDTRNLRLARATDEYILKGQGVEIYEPRFTYHGFRYVEVEDYPGTLTSDNIEAMFVHTDVEKVGDFACSSELLNKIHSCVVNSQLANLMGIPTDCPQRDERMGWLGDAQLTVEEAMYNFDMAAFYTKYLMDIKLSQKEDGSISAVAPPYWKRYPSDPAWGTAYATILWYLYFFYEDRRVLEEHYDSLKRYVEFLRKNSPNHLTKLGQHGDWCPPGDKFPKRTPLILTSTWYYYHDTLILSEIAKILGKKEDEHEYRKLAGEIKEAFNRHFLRKVEDHTGRIVCFYRGIKLSPKDRIPTTQTCNVLPLWNKMVPEECREDVFKVLERLIEVDNDTHFDTGIVGTRYILEVLSENGRKDLALKLLLKEDYPSFGYMIKNGATTLWERWEKLEGTGMNSHNHVMLGSVDTWFYKYLSGIKPVAPGWKKIRIEPYFADQIDFVSAKIKTPNGSLEVSWKKQNKEYEIQIIIPVNTVGIFAVPESFKVSAINSKQVSYPSEFELEPGAYNIVLERVREC
notes: as for B1
Turning to B4, under setting [4], the Km was determined as 3.12 ± 0.26 µM, the Vmax was determined as 1.91 µM/min, the kcat was found to be 4.64e-05 s⁻¹ and the kcat/Km was 14.9 M⁻¹ s⁻¹.

B5: TpeRha (Thermotoga petrophila RKU-1; K579A) (protein)
chain: MIQACDLRCEYLTSPVLGLDVIPRFSWRLKGNGKKQTRYKIIVSDNFDDIERGIGNVWESEKDSSKNLNIEYEGPKLKAYKGYYWRVKLWDEKENGPWSETAYFEMGPLEDWRGKWITMPSPLSFKDPAHRHELFYAMYFRKEFLLNKEVEKARVYVSGLGVYELHLNGKRVGNNVLDPAPTDYNKVALYSTYDVTQYLTTGKNTIGVILGNGRHIRDYGYSKPKLYLQLLVFYKDGSREFICSDETWKVSHGPLKENGIYFGEVYDARDEISGWDSPGFDDRNWSEVEIVEGPSLKAQLIPVIRVCEVIKPKRLWLSSRGTFIVDFGKNISGWVKLRVNNGKRGEKIIIRYAEVLDPSMDRLDTRNLRLARATDEYILKGQGVEIYEPRFTYHGFRYVEVEDYPGTLTSDNIEAMFVHTDVEKVGDFACSSELLNKIHSCVVNSQLANLMGIPTDCPQRDERMGWLGDAQLTVEEAMYNFDMAAFYTKYLMDIKLSQKEDGSISDVAPPYWKRYPSDPAWGTAYATILWYLYFFYEDRRVLEEHYDSLKRYVEFLRKNSPNHLTKLGQHGDWCPPGDAFPKRTPLILTSTWYYYHDTLILSEIAKILGKKEDEHEYRKLAGEIKEAFNRHFLRKVEDHTGRIVCFYRGIKLSPKDRIPTTQTCNVLPLWNKMVPEECREDVFKVLERLIEVDNDTHFDTGIVGTRYILEVLSENGRKDLALKLLLKEDYPSFGYMIKNGATTLWERWEKLEGTGMNSHNHVMLGSVDTWFYKYLSGIKPVAPGWKKIRIEPYFADQIDFVSAKIKTPNGSLEVSWKKQNKEYEIQIIIPVNTVGIFAVPESFKVSAINSKQVSYPSEFELEPGAYNIVLERVREC
notes: as for B1
As to B5, under setting [5], the Km is 1.24 ± 0.09 µM, the Vmax stood at 1.97 µM/min, the kcat was 4.31e-05 s⁻¹ and the kcat/Km was 34.7 M⁻¹ s⁻¹.

B6: TpeRha (Thermotoga petrophila RKU-1; D506A/H570A) (protein)
chain: MIQACDLRCEYLTSPVLGLDVIPRFSWRLKGNGKKQTRYKIIVSDNFDDIERGIGNVWESEKDSSKNLNIEYEGPKLKAYKGYYWRVKLWDEKENGPWSETAYFEMGPLEDWRGKWITMPSPLSFKDPAHRHELFYAMYFRKEFLLNKEVEKARVYVSGLGVYELHLNGKRVGNNVLDPAPTDYNKVALYSTYDVTQYLTTGKNTIGVILGNGRHIRDYGYSKPKLYLQLLVFYKDGSREFICSDETWKVSHGPLKENGIYFGEVYDARDEISGWDSPGFDDRNWSEVEIVEGPSLKAQLIPVIRVCEVIKPKRLWLSSRGTFIVDFGKNISGWVKLRVNNGKRGEKIIIRYAEVLDPSMDRLDTRNLRLARATDEYILKGQGVEIYEPRFTYHGFRYVEVEDYPGTLTSDNIEAMFVHTDVEKVGDFACSSELLNKIHSCVVNSQLANLMGIPTDCPQRDERMGWLGDAQLTVEEAMYNFDMAAFYTKYLMDIKLSQKEDGSISAVAPPYWKRYPSDPAWGTAYATILWYLYFFYEDRRVLEEHYDSLKRYVEFLRKNSPNHLTKLGQAGDWCPPGDKFPKRTPLILTSTWYYYHDTLILSEIAKILGKKEDEHEYRKLAGEIKEAFNRHFLRKVEDHTGRIVCFYRGIKLSPKDRIPTTQTCNVLPLWNKMVPEECREDVFKVLERLIEVDNDTHFDTGIVGTRYILEVLSENGRKDLALKLLLKEDYPSFGYMIKNGATTLWERWEKLEGTGMNSHNHVMLGSVDTWFYKYLSGIKPVAPGWKKIRIEPYFADQIDFVSAKIKTPNGSLEVSWKKQNKEYEIQIIIPVNTVGIFAVPESFKVSAINSKQVSYPSEFELEPGAYNIVLERVREC
notes: as for B1
As for B6, under setting [1], the Km is 0.51 ± 0.13 µM, the Vmax was 2.5 µM/min, the kcat was 9.87e-05 s⁻¹ and the kcat/Km was 194 M⁻¹ s⁻¹.
